Reference: patent US8629241B2, “Alpha helical mimics, their uses and methods for their production” (The University of Queensland, priority 2004, dated 2014)
Read-outs that look alike come from different tables or passages of the source. Bridges are numbered along the chain shown (N, C = ends). [ ]: non-standard residue; d: D form. Orn = NCCC[C@H](N)C(=O)O

Assay type: physicochemical
Conditions: for [θ]207: molar elipticity at 207 nm; for percentage helicities: equation 2b with k˜4, assuming 8 has 100% helicity
Procedure: Circular Dichroism (CD) was performed on peptides having SEQ ID NOs: 8 to 14 and 18 to 31, using methods described above. The molar elipticities at 222 nm, 208 nm and 190 nm, ratios of elipticities at 222 nm/208 nm and relative helicity are shown in Tables 6 and 7.
Assuming that mean alpha helix content (fH) is linearly related to elipticity at 222 nm, or in our case 215 nm ([θ]obs215), then the equation for calculating helix content is: fH=([θ]obs215−[θ]C)/([θ]∞215−[θ]C) (1) Luo and Baldwin^22 determined that the random coil ([θ]C) and infinite alpha helix ([θ]∞222) molar elipticities are temperature dependent based on the equations: [θ]C=2220−53T (2a) [θ]∞215=(−44000+250T)(1−k/Np) (2b) where T is temperature in degrees Celsius, Np is the number of peptide units, and k is a finite length correction.
CD was performed on peptides having one [SEQ ID NO: 8] or more than one modular macrocycle [SEQ ID NOs: 46 and 47], as compared with corresponding linear peptides, Ac[KARAD]n—NH2 where n=1 [SEQ ID NO: 14], n=2 [SEQ ID NO: 54] and n=3 [SEQ ID NO: 55]. The molar elipticities at 222 nm, 208 nm and 190 nm, ratios of elipticities at 222 nm/208 nm and percentage helicity are shown in Table 8.
CD experiments were performed on a Jasco Model J-710 spectropolarimeter which was routinely calibrated with (1S)-(+)-10-camphorsulfonic acid. Temperature control was achieved using a Neslab RTE-111 circulating water bath. Spectra were recorded in a 0.1 cm Jasco cell between 310-185 nm at 50 nm/min with a band width of 1.0 nm, response time of 2 sec, resolution step width of 0.1 nm and sensitivity of 20, 50 or 100 mdeg. Each spectrum represents the average of 5 scans with smoothing to reduce noise. Peptide samples for CD spectroscopy were dissolved in distilled water (˜1 mg/mL). Each stock solution was diluted to a final concentration of 50 μM in 10 mM sodium phosphate buffer (pH7.4), with or without additives (2,2,2-trifluoroethanol (TFE) or guanidine.HCl). Guanidine.HCl denaturation experiments were performed according to Creighton^105.
1D ^1H NMR spectra were then recorded with presaturation and a relaxation delay (d1) of 30 seconds to allow for full relaxation of peptide and DSS^1H signals to facilitate accurate integration of proton signals with S/N>250:1. This method provides reproducible concentrations within ±2%.
CD data in ellipticity was converted to mean peptide ellipticity using the equation: [θ]=θ/(10×C×Np×1) where θ is the ellipticity in millidegrees, C is the peptide molar concentration (M), 1 is the cell path length (cm), and Np is the number of peptide units (ie. pentapeptides […], 10 & 11 Np=5, 12 Np=4.)
Relative helicities were employed to allow scaling of compounds by dividing the [θ]obs215(8)/[θ]obs215(x) for pentapeptides, and [θ]obs215(24)/[θ]obs215(x) for hexapeptides.

[1] = [θ]215 relative to SEQ ID NO: 8, 10 mM phosphate buffer, pH 7.4, 25° C
[2] = molar elipticity at 190 nm, 10 mM phosphate buffer, pH 7.4, 25° C
[3] = 10 mM phosphate buffer, pH 7.4, 25° C
[4] = molar elipticity at 215 nm, 10 mM phosphate buffer, pH 7.4, 25° C
[5] = ratio of elipticities, 10 mM phosphate buffer, pH 7.4, 25° C
[6] = cyclic hexapeptides 23-31, 10 mM phosphate buffer pH 7.4 at 25° C
[7] = θ215 relative to SEQ ID NO: 24, 10 mM phosphate buffer pH 7.4 at 25° C

Substance: Ac-(cyclo-1,5)-[OARAD]-NH2 (Ac-[Orn]ARAD-NH2; lactam 1-5; SMILES CC(=O)N[C@H]1CCCNC(=O)C[C@@H](C(N)=O)NC(=O)[C@H](C)NC(=O)[C@H](CCCNC(=N)N)NC(=O)[C@H](C)NC1=O) [SEQ ID NO: 12]
- Relative helicity [1]: 0
- [θ]190 [2]: −4613 deg.cm^2.dmol^−1.residue^−1
- [θ]207 [3]: −2077 deg.cm^2.dmol^−1.residue^−1
- [θ]215 [4]: 92 deg.cm^2.dmol^−1.residue^−1
- θ215/θ207 [5]: −0.04

Substance: Ac-(cyclo-1,5)-[OARAE]-NH2 (Ac-[Orn]ARAE-NH2; lactam 1-5; SMILES CC(=O)N[C@H]1CCCNC(=O)CC[C@@H](C(N)=O)NC(=O)[C@H](C)NC(=O)[C@H](CCCNC(=N)N)NC(=O)[C@H](C)NC1=O) [SEQ ID NO: 18]
- Relative helicity [1]: 0
- [θ]190 [2]: −16228 deg.cm^2.dmol^−1.residue^−1
- [θ]207 [3]: −3368 deg.cm^2.dmol^−1.residue^−1
- [θ]215 [4]: 741 deg.cm^2.dmol^−1.residue^−1
- θ215/θ207 [5]: −0.22

Substance: Ac-(cyclo-2,6)-R[KAAAD]-NH2 (Ac-RKAAAD-NH2; lactam 2-6; SMILES CC(=O)N[C@@H](CCCNC(=N)N)C(=O)N[C@H]1CCCCNC(=O)C[C@@H](C(N)=O)NC(=O)[C@H](C)NC(=O)[C@H](C)NC(=O)[C@H](C)NC1=O) [SEQ ID NO: 23]
- Molar ellipticity at 207 nm [6]: −13684 deg.cm^2.dmol^−1.residue^−1
- [θ]190 [6]: 39352 deg.cm^2.dmol^−1.residue^−1
- [θ]215 [6]: −13537 deg.cm^2.dmol^−1.residue^−1
- θ215/θ207 [6]: 0.99
- percentage helicities: 83%
- Relative helicity [7]: 0.91

Substance: Ac-(cyclo-2,6)-R[KAFAD]-NH2 (Ac-RKAFAD-NH2; lactam 2-6; SMILES CC(=O)N[C@@H](CCCNC(=N)N)C(=O)N[C@H]1CCCCNC(=O)C[C@@H](C(N)=O)NC(=O)[C@H](C)NC(=O)[C@H](Cc2ccccc2)NC(=O)[C@H](C)NC1=O) [SEQ ID NO: 27]
- Molar ellipticity at 207 nm [6]: −9087 deg.cm^2.dmol^−1.residue^−1
- [θ]190 [6]: 27718 deg.cm^2.dmol^−1.residue^−1
- [θ]215 [6]: −8644 deg.cm^2.dmol^−1.residue^−1
- θ215/θ207 [6]: 0.95
- percentage helicities: 53%
- Relative helicity [7]: 0.76

Substance: Ac-(cyclo-2,6)-R[KAGAD]-NH2 (Ac-RKAGAD-NH2; lactam 2-6; SMILES CC(=O)N[C@@H](CCCNC(=N)N)C(=O)N[C@H]1CCCCNC(=O)C[C@@H](C(N)=O)NC(=O)[C@H](C)NC(=O)CNC(=O)[C@H](C)NC1=O) [SEQ ID NO: 28]
- Molar ellipticity at 207 nm [6]: −7678 deg.cm^2.dmol^−1.residue^−1
- [θ]190 [6]: 10036 deg.cm^2.dmol^−1.residue^−1
- [θ]215 [6]: −4874 deg.cm^2.dmol^−1.residue^−1
- θ215/θ207 [6]: 0.63
- Relative helicity [7]: 0.32

Substance: Ac-(cyclo-2,6)-R[KALAD]-NH2 (Ac-RKALAD-NH2; lactam 2-6; SMILES CC(=O)N[C@@H](CCCNC(=N)N)C(=O)N[C@H]1CCCCNC(=O)C[C@@H](C(N)=O)NC(=O)[C@H](C)NC(=O)[C@H](CC(C)C)NC(=O)[C@H](C)NC1=O) [SEQ ID NO: 24]
- Molar ellipticity at 207 nm [6]: −15165 deg.cm^2.dmol^−1.residue^−1
- [θ]190 [6]: 46621 deg.cm^2.dmol^−1.residue^−1
- [θ]215 [6]: −14798 deg.cm^2.dmol^−1.residue^−1
- θ215/θ207 [6]: 0.98
- percentage helicities: 91%
- Relative helicity [7]: 1.00

Substance: Ac-(cyclo-2,6)-R[KAMAD]-NH2 (Ac-RKAMAD-NH2; lactam 2-6; SMILES CSCC[C@@H]1NC(=O)[C@H](C)NC(=O)[C@@H](NC(=O)[C@H](CCCNC(=N)N)NC(C)=O)CCCCNC(=O)C[C@@H](C(N)=O)NC(=O)[C@H](C)NC1=O) [SEQ ID NO: 25]
- Molar ellipticity at 207 nm [6]: −12296 deg.cm^2.dmol^−1.residue^−1
- [θ]190 [6]: 38464 deg.cm^2.dmol^−1.residue^−1
- [θ]215 [6]: −11853 deg.cm^2.dmol^−1.residue^−1
- θ215/θ207 [6]: 0.96
- percentage helicities: 73%
- Relative helicity [7]: 0.80
